# Data: article PMC7430671 (2020)
# B1: RapZ_(1–279), BACTH fusion [E. coli] / full-length RNase E (RneFL), BACTH fusion [E. coli] (parent complex)
# chain 1: MVLMIVSGRSGSGKSVALRALEDMGFYCVDNLPVVLLPDLARTLADREISAAVSIDVRNMPESPEIFEQAMSNLPDAFSPQLLFLDADRNTLIRRYSDTRRLHPLSSKNLSLESAIDKESDLLEPLRSRADLIVDTSEMSVHELAEMLRTRLLGKRERELTMVFESFGFKHGIPIDADYVFDVRFLPNPHWDPKLRPMTGLDKPVAAFLDRHTEVHNFIYQTRSYLELWLPMLETNNRSYLTVAIGCTGGKHRSVYIAEQLADYFRSRGKNVQSRHRTL
# chain 2: not shown
# B2: RapZ_(1–279), BACTH fusion [E. coli] / itself (parent complex)
# chain: B1 chain 1
# Variants of: B1
# Assay: BACTH assay (β-galactosidase activity); top panel; T18-RapZ1-279 variant with T25-RneFL (pYG100); mean ± SD, n ≥ 2; parent: 1.7e+03; read off a plot
row,Variant,response
1,"chain 1 T278G, chain 1 L279G",~50 Miller units
2,chain 1 T278G,~980 Miller units
3,chain 1 L279G,~100 Miller units

# Variants of: B2
# Assay: BACTH assay (self-interaction; β-galactosidase activity); bottom panel; same RapZ1-279 variant fused to T18 and to T25; mean ± SD, n ≥ 2; parent: 4.1e+03; read off a plot
row,Variant,response
1,chain 1 T278G,~4000 Miller units
2,chain 1 L279G,~3300 Miller units
